Patent publication US20130078718A1, “CONVERSION OF VASCULAR ENDOTHELIAL CELLS INTO MULTIPOTENT STEM-LIKE CELLS” (PRESIDENT AND FELLOWS OF HARVARD COLLEGE, priority 2010, published 2013)

Molecular target: T1, ALK2 with ALK5 (Homo sapiens, UniProt Q04771)
T1 construct: endogenous in cells; host or cells: HUVEC
T1 sequence (Q04771 21-509): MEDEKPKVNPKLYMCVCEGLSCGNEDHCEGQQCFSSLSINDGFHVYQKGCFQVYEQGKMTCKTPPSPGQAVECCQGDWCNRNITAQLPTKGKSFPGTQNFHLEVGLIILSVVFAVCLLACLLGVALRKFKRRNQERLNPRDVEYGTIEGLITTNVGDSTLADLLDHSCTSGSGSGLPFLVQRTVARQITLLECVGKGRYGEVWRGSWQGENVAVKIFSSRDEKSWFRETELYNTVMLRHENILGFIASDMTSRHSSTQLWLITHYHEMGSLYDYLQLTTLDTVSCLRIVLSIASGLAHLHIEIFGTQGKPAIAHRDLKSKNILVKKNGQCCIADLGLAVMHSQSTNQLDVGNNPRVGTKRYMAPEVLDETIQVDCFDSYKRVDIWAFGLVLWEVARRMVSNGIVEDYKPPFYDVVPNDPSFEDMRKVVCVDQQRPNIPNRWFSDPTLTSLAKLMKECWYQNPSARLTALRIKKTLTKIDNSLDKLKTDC
Assay: Interaction of ALK2 with ALK5: immunoprecipitation of ALK2, immunoblotting for ALK5
Assay type: cell-based
Conditions: 10 ng ml−1, 15 min
Experimental: Human umbilical vein endothelial cells (HUVEC) and human cutaneous microvascular endothelial cells (HCMEC) isolated as previously described (35). Cells were tested for purity and found to express no markers for lymphatic endothelial cells or stromal cells (pericytes, smooth muscle cells, etc.) (36). This was reconfirmed by flow cytometry analysis (data not shown). Clonal populations were isolated with PYREX 8×8 mm cloning cylinders (Corning) and shown to respond in a manner identical to that of the cultures used for our experiments (FIG. 25B-D). Cells were grown in culture using EGM-2 medium (Cambrex), containing 10% FBS and 1% Penicillin/Streptomycin, followed by human endothelial serum free medium (Gibco) 24 h prior to all experimental conditions. Bone marrow derived mesenchymal stem cells (ScienCell Research Laboratories) were grown in mesenchymal stem cell medium (ScienCell Research Laboratories). Bone marrow derived hematopoietic stem cells (Lonza) were grown in HPGM medium (Lonza). Human corneal fibroblasts, from a stock provided by Dr. Elizabeth Hay (Harvard Medical School), were grown in RPMI medium, containing 10% FBS and 1% Penicillin/Streptomycin. Primary human osteoblasts, chondrocytes, and adipocytes and their respective growth media were obtained from Cell Applications, Inc. […] Recombinant VEGF (R&D Systems) was added to cultures at a concentration of 25 ng ml^-1. Dorsomorphin (Sigma-Aldrich) was added to cultures at a concentration of 5 μM. All experiments for this study were performed at minimum in triplicate. Immunoassays were performed using the following antibodies at concentrations (and using protocols) recommended by the respective manufacturers: […] Stressgen), phospho-Smad2 (3101), Smad2 (3122), phospho-Smad5 (9516), Smad5 (9517; […] Santa Cruz Biotechnology), osterix (ab22552), adiponectin (ab22554), N-cadherin (ab76057), NG2 (ab83508), vWF (ab68545; Abcam); CD31 (IR610; Dako), […]; GenScript); α-SMA ([…]), β-actin (A1978; Sigma-Aldrich). […] Images were acquired using a Nikon 80i fluorescence microscope.

Row | Substance | ALK5 in ALK2 immunoprecipitates
1 | TGF-β2: Recombinant TGF-β2 protein (R&D Systems), ALK2 activating ligand, used at 10 ng/mL | presence of ALK5
2 | BMP4: Recombinant BMP4 protein (R&D Systems), ALK2 activating ligand, used at 10 ng/mL | presence of ALK5
